Assay results from patent US20250333517A1 (ROCK BIOMEDICAL, published 2025).

T1: CD20 (UniProt P11836 1-297, limits assumed)
T1 construct: also called the antigen (of Rituximab and Obinutuzumab)
T1 sequence (looked up): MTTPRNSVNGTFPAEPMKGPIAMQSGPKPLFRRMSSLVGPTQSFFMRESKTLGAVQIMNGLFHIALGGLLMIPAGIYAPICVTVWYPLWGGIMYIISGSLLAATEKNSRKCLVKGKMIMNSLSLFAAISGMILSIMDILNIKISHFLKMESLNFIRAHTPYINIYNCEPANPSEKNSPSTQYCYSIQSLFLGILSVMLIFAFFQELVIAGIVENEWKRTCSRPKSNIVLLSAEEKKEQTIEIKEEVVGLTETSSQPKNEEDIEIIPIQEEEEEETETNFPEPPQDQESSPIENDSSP


How the values were obtained:
[1] = target: T2, Vascular Endothelial Growth Factor (VEGF-A) (UniProt P15692-4 27-191, limits assumed); experiment: ELISA, target binding (FIG. 60)
T2 construct: also called the antigen (of Bevacizumab)

[2] = target: FcγRIIIA on the effector cells of the ADCC reporter assay (UniProt P08637 17-254, limits assumed); experiment: cell-based or functional assay
CD20 = target: T1, CD20; experiment: ELISA, target binding (FIG. 57)

T2 sequence (P15692 other isoform, or with tags, fused parts or gaps limits assumed): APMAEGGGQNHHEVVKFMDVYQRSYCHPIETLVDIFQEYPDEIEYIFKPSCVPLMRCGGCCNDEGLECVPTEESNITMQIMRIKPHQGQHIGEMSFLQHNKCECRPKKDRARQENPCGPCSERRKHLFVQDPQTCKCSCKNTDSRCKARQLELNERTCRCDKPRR
Sequence of FcγRIIIA on the effector cells of the ADCC reporter assay (P08637 17-254 limits assumed): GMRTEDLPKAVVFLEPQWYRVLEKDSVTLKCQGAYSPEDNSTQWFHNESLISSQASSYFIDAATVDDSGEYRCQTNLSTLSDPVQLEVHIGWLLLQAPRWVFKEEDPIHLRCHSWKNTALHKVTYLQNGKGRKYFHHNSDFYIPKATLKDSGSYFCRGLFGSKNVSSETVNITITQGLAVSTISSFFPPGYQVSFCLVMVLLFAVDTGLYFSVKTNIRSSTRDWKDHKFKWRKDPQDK

Binder	EC50 [1] [nM]	ADCC EC50 (M), ADCC Reporter Bioassay [2] [M]	EC50 (CD20) [nM]
Bevacizumab population of the present disclosure (Biobetter), produced by SAII A3 cells (antibody, V domains shown, N-glycan on the heavy chain: around 82.6% SCT glycans, mostly with core fucose, also called glycoengineered Avastin protein population) VH: EVQLVESGGGLVQPGGSLRLSCAASGYTFTNYGMNWVRQAPGKGLEWVGWINTYTGEPTYAADFKRRFTFSLDTSKSTAYLQMNSLRAEDTAVYYCAKYPHYYGSSHWYFDVWGQGTLVTVSS VL: DIQMTQSPSSLSASVGDRVTITCSASQDISNYLNWYQQKPGKAPKVLIYFTSSLHSGVPSRFSGSGSGTDFTLTISSLQPEDFATYYCQQYSTVPWTFGQGTKVEIKR	0.377	–	–
Rituximab population of the present disclosure (Biobetter), produced by SAII A3 Fut8 KO cells (antibody, human IgG1, kappa, N-glycan on the heavy chain: around 83.4% SCT glycans, no core fucose, also called glycoengineered MabThera protein population) heavy: not shown light: QIVLSQSPAILSASPGEKVTMTCRASSSVSYIHWFQQKPGSSPKPWIYATSNLASGVPVRFSGSGSGTSYSLTISRVEAEDAATYYCQQWTSNPPTFGGGTKLEIKRTVAAPSVFIFPPSDEQLKSGTASVVCLLNNFYPREAKVQWKVDNALQSGNSQESVTEQDSKDSTYSLSSTLTLSKADYEKHKVYACEVTHQGLSSPVTKSFNRGEC	–	1.76e-10	0.77
